Results reported in publication doi:10.1101/2025.05.16.654433.

T1: GSP-2 (C. elegans PP1 homolog), as found in the MudPIT immunoprecipitations, P48727
T1 chain: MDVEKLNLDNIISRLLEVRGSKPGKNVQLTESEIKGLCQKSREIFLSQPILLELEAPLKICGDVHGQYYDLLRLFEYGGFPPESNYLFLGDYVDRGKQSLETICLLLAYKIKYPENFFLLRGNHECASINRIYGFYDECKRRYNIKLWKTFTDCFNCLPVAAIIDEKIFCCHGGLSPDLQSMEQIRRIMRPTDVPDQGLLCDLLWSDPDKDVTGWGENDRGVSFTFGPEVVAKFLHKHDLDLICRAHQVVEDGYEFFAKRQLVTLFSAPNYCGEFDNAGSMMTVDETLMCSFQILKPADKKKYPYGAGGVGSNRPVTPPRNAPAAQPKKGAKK


Target: T1, GSP-2 (C. elegans PP1 homolog), as …
Assay: MudPIT analysis of 3xflag immunoprecipitations
Details: chain shown with the change, whole-worm lysates, parent: 10.79

| response (% of total protein) (bait recovered in same sample 0.12 (mutant) vs 0.54 (wild type) % of total protein) | response (% of total protein) (bait recovered in same sample 0.22 (mutant) vs 0.54 (wild type) % of total protein) | Binder |
| --- | --- | --- |
| 0.87 | – | APE-1 (C. elegans ASPP homolog), 3xflag-tagged, as in the MudPIT immunoprecipitations, Q9XVN3 H591Y (protein) MVTTSSGGGIGYPANNGVTQVSLIHSSDSVRTVSTAPIYRPTSSMASTMAHKSSTAPFISANQRMSKPPVRVVAQPPPPHPQALSQQYHQQNPMMMYSAPNTRPHVIPTMQVQPTMAAQIKRNNPVNAQFQNPSEMIADYGVKPQSVEMVQRVRAVRRQVADEETELRRLRELEHETAQLQNKNYGRERELNVQGSMLKEAQLELRNASMRAQSLNKHLEEMYRRRQTAAAAALVEQRKMQQHQILLARAANQVSTQEVIRPRASVEPFQVNNTQQQQPSPQMMKSEEFSEKRDLNGQTGSYDAIDGSGDHQKIPTEPSYLAPCKENQQKYSELSKMASTDPHSNHSSPSTSSQKAPTLITFSPPSFEQKINSSTMTRDSPFVERPTSFGDSLDESRLRSGKTDLVSLRSDSLKATKRRSWAASEGTSMSEAEMIHRLLDEQRRGRSHFIPQLPTSQEEPSAITSETYAEEVVNSESKQVATSSDSTNNLELPTEQMVLGSDTTTEEDASSCSTRSDDGQNLEMEVAIERRTVKGILRRPNEKMNKGRIEFDPLALLLDAALEGELDLVRSSASKLTDVSQANDEGITALYNAICAGHYEIVRFLIENDADVNAQDSDGWTPLHCAASCNNLPMVRQLVEGGGCVLASTLSDMETPVEKCEEDEDGYDGCLKYLSAAHNSTGSINTGKVYAAYGYEAAFEDELSFDAGDELTVIEKDKVDKNWWTCEKNNGEKGQVPRTYLALYPSLKYRKKLNFVMFDLPLESNNNVE |
| – | 0.87 | APE-1 (C. elegans ASPP homolog), 3xflag-tagged, as in the MudPIT immunoprecipitations, Q9XVN3 N583K (protein) MVTTSSGGGIGYPANNGVTQVSLIHSSDSVRTVSTAPIYRPTSSMASTMAHKSSTAPFISANQRMSKPPVRVVAQPPPPHPQALSQQYHQQNPMMMYSAPNTRPHVIPTMQVQPTMAAQIKRNNPVNAQFQNPSEMIADYGVKPQSVEMVQRVRAVRRQVADEETELRRLRELEHETAQLQNKNYGRERELNVQGSMLKEAQLELRNASMRAQSLNKHLEEMYRRRQTAAAAALVEQRKMQQHQILLARAANQVSTQEVIRPRASVEPFQVNNTQQQQPSPQMMKSEEFSEKRDLNGQTGSYDAIDGSGDHQKIPTEPSYLAPCKENQQKYSELSKMASTDPHSNHSSPSTSSQKAPTLITFSPPSFEQKINSSTMTRDSPFVERPTSFGDSLDESRLRSGKTDLVSLRSDSLKATKRRSWAASEGTSMSEAEMIHRLLDEQRRGRSHFIPQLPTSQEEPSAITSETYAEEVVNSESKQVATSSDSTNNLELPTEQMVLGSDTTTEEDASSCSTRSDDGQNLEMEVAIERRTVKGILRRPNEKMNKGRIEFDPLALLLDAALEGELDLVRSSASKLTDVSQAKDEGITALHNAICAGHYEIVRFLIENDADVNAQDSDGWTPLHCAASCNNLPMVRQLVEGGGCVLASTLSDMETPVEKCEEDEDGYDGCLKYLSAAHNSTGSINTGKVYAAYGYEAAFEDELSFDAGDELTVIEKDKVDKNWWTCEKNNGEKGQVPRTYLALYPSLKYRKKLNFVMFDLPLESNNNVE |
